System: VIP-BH3 BID fusion protein
Sequence (chain, as listed by the source): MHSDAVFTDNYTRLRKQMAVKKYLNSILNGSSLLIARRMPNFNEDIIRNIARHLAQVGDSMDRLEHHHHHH

Sequence of recombinant human cathepsin D (chain, as listed by the source): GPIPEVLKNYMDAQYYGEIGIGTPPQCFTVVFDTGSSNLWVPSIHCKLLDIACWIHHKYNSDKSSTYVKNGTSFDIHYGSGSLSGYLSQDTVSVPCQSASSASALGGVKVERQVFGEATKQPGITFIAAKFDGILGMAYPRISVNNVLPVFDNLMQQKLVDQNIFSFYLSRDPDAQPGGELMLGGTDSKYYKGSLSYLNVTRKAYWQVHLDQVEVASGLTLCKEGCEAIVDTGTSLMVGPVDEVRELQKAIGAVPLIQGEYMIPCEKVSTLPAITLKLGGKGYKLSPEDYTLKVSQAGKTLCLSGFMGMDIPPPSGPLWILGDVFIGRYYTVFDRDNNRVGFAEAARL

In the case of recombinant human cathepsin D, the “cleavage of fusion protein by cathepsin D at ˜400:1 (w/w), followed by mass spectrometry” value is reported as “The first cleavage occurred at the linker by around 30 minutes of treatment with the protease”.
